Source: the DeepSol protein solubility set

Assay: soluble on expression in E. coli; label from the status in PepcDB or PDB records

Sequence	soluble on expression in E. coli
MAHHHHHHMLVKENHSVILYADEENVELVKLTSDGVLTNRKGTFLHKNIIGKKYGSKIYDSACRNYIYVLRRTPEFVAISLKKKTQTLYEHDISFICLLCNALPNKKIIEAGTGTGCLTYALASCVLPKGVIHTFEYNEERYEEVRNEFSNFENVKNNIKFHHKDVISDSFVEFQPGEIDSVFLDMPNPWLCVPHVKKVLKERGVFVIFLPCIEQVYKIIEALEENQFCEIVTYELVNKSWEIIRNGGPAGGCKRARQFSLGGAKETSDPLEGVKETGDPLEGVKETGGPLEGVKETGDPLEGVKETGDPLERAKQSNDPLERAKQSSDPSNEQKNCPTPAQSQNPTYRLRQKENKTHTGYLIFSKKELSDEHEQIEIELKGV	not soluble
MAHHHHHHMMAAPGTSQLDSLKATARKGFYTGLSSGLMRQLIYATARLGFYPSFRDGILEGEVALGLKRSADPAGATALDRALAGASAGVFASFLSSPVEVCLVLQTTSKGKERLSMLQACNSVLKSRGVTGLWSGFGALASRAALVGVSQVAVHDQVLTMLRKRNVKRADPLGDNVVVNIASVITALFYSIVTMPVEVARVRMSAEAKLSAGAERRYHNVVQCIGRIFKEEGLLAMYDSYLPYFSRCASQTVICFFVIEYLTRELRERQKAKTNLIK	soluble
MAHHHHHHMMPRSENQKEEEEWELHPLFLSKIPNKKDIDKNPALSALITLINEEEEKEVFSYEPRRKNLKKKITEKGQIIYKKDRRNLYEPYQQNKNDKINYFEKKNFGGNADISKEEEVLDVEMDEEGTTVTTAEQGGDHSSQNVSNNQEATDQTSIGEVLVCLSMMNLKQ	soluble
MAHHHHHHMMSLAIEAVKDFLVKLQDDICEALEAEDGQATFMEDKWTREGGGGGRTRVMVNGAVIEKGGVNFSHVYGKGLPGSSTERHPDMTGCNFQAMGVSLVIHPKNPHVPTSHANVRLFVAEREGKEPVWWFGGGFDLTPYYAVEEDCRYFHQVAQDLCKPFGADVYTRFKVWCDEYFFIPYRNEARGIGGLFFDDLNEWPFEKCFEFVQAVGKGYIDAYIPIVNRRKNTPYTEQQVEFQEFRRGRYAEFNLVIDRGTKFGLQSGGRTESILISLPPRARWGYDWQPEPGTPEARLTEYFLMKRQWV	soluble
MAHHHHHHMMSSASLLEKVPQPWAALVRPFLQRSHEFEDKEPLVAYYLRTHVAFLCMRQRSKEDKDGTAFLMTLLDALEASKARLGAQLQGIDGRTVLTKFALMLFARADDAERTGNASMAIVRLFYTASVLFEATAQFTDDGAMDAVAAQKSKYAKYIATRMKKALDKNEPYVSPNKLETADDDAAGGVGGVNGAGPATTFTTAPASCFMRPTSQPTSVSNRAPAPTTAHENLPALPYAPPPVTQKLDTPPPPPHTPDADTQGRSKTPVHPSPMKNTYAPPQPQHTSQQQQWLSTSSAVPSLPPTPSSAQQRYAAPSSAGGGVGATGFKPSVDQMIDAQKLASQAVSALQFYDYENAKQQLVASLRVLNGVQ	soluble
MAHHHHHHMNEKGNFMKKAYKNNNIQLSENQINQRIKNVNLTKRLICYERYLKAIPKIERRNDLKNSWHPETPRYNKQISLSQWNKELKKWRKQIHAWGNISEEDHRYICKLSYTDKYKYLCNLKMPELSNLEIKNMKKENEEISHDILKHILLIQNKHNNPFDENDKIMYQPIFFLPENFSGTVVHNEFVIIKEQNMEKYLTLLKDKYKDKYNYCFKKYYELYLLNKDSDNKNVENSKNTIPKNGKNHIVIYLGKETKPLNYKNKEAQYEQKEKMEAYNFLCGSTKKYENHNKMNKRKKF	not soluble
MAHHHHHHMNFIKAEEKDKCAEEQGVKLFYLKSCKEKEYELHMDVCQAIVEDCPLLEVYVVSRGDGSSESGAFELYDNGQLIKKFTNCNVSTVTSFIRKYAQKGGSSPMEATQSGELNSTGKTDTVKKIEHLIGSNKIILFMKGSKTFPQCKFSNAVVFMLNSCKVKYTTYDILQDEDVRSELKIYSNWPTYPQLYINAELIGGHDIIKSMYDSGELRDVVPQDCFEG	soluble
MAHHHHHHMNGNHGEPGTERENRSSADEAPKGDAFFDPSAEQYLVISPRQKLNPVLKKINRVRYKFSNIIPDFLIGKNNACLFISMKYHRLRSNYLKARIETLSNKYSNRILLCLVDIENIENSLGEINQLAFCFNMTLILCWSTEECARVIEDFKIYEKKISYIRNNKLTSTHAEKIHELLKKIRCINSSDCATITNKFKSFKNIVTAKKDDLINCSGLGNKKIQALISAFNDPFF	soluble
MAHHHHHHMNHSPFLTALYTDVQSRLPLWTTRYVKPISNGTFAVSSTWTDDSGAQLQRLFIAVEASDTNCISEAVLAEWIAFVEAWQAAHKEDEVSCFVGFVDLAGTVSYYRCETAVAGAWRSKPDDHLTCR	not soluble
MAHHHHHHMNKHICIYGGSFDPITHAHEMVLAEVSSLDWVDEIWVVLCRCRNDKHLTEFQHRHNMFSLIMNNNSPKMLKNKIFLKDIECKETTTPTYDLLKMQKEKYPNYTFYFTIGSDLLNDIFFWDNGEKLVAENNFIIVERGNFKIDENVLKKFPSYYLIKIENMSFINYISSSDARKMLSQKNNSEDLQKYIHPVIINYIKEHDLYDNNSA	soluble
MAHHHHHHMNNLTLGDSNICGTFNKLPFIESYYNRKGILLKSYSWLVKNAIGIIVLVHGLSAHLRLQYLKLNVNVVNNDYATLIDADNYYIYEDSWIEEFNKNGYSVYGIDLQGHGESDGLDKLPLHINNFDDYVYDIIDYMRRINNSIVLEKSMQKSTSNKYTIENREELLPMYLVGLSMGGNIVLRTLEILGKSNEINSNLNIKGCISLAGMISVRMVGSIDSIKYKYFYLPVMKIFSRYFPTFRPGKKKFKFEKYPFVNDLLFYDKYRFKGRITNNLAREILVALDNLHNNIDDIPKNIPILFIHSINDCLCWYEGTVSFYNKLQIDNKELYTLEDMDHVISMEPGNENVLKKILEWISNLYVQ	not soluble
MAHHHHHHMNVLTSHTHLHMRRSCCMATARGCLGNIRTSDVSTRRCKGDYGFNIFHNSNPQHGASYARHERRMREDEVEDFLKSVKGWVPVDECFPCVDADADAEGADARKEEKEEMGPAPLTIFTGEGALKRDFDFANFRDAYLFMGRLWAFCYGSDKYPNVTWEGTRITVYIYSPSFRGLSKREARLAAFLNDQYNMFKKSKRQQKVIIDGVVKRSVIEDMMGECVAEALKRREEERQKPLAETVEGIATSWEAVLSKDGNNNNNDGTPSSCTSP	not soluble
MAHHHHHHMPAAVPVRTPPYLVDVAANLTDCVFRGVDWKSNRLHDDDFDYVLARAQERNVQQIIITGTSLAQSVKAIALCRRYPDRRLLCTVGVHPAHCGEFLRPLDRDEVQRVAESASSVVMPHHEKSAAAMTAEREEAWAQERLDYLVDLATRNRDVVVAMGEIGIDYAEVACCPREVQEKYFARQLTAFAPLQLPFLFHSRACGMMFVSHLQDTWTRIASDAAATEAVADNAGASSPSPHAQLRGVVHSFNGTLEEQEALLSMGLYLSLNSSAFREASLAAQVALIPLGRLMFETDAPWCDVRSKDYGAQFVRTVFKTIKRKKPFEMGACLERRNEPCHLVQVMEEYLGCAKASATSPEDPLSRMDEATLVAAVYENCKRLFQL	not soluble
MAHHHHHHMPFVVTHPPDTAELVEGEPFYSLAMYTLLSSTTDVVPALRNFTFQLRAFNVLPPYDAVGLLSGIDSTGLIVWGGALGFLEWLVQHPDRLQARMRNVSKAQAHVIELGCGSGVVAVALCALLRGLDLPDLVEKSISSSPAVCVWATDGNPECVSLAERNLRAQLKEPCTSCPGVAASAALLRWGDAAAVQEALQTSFPGCTAASSITVVAADVLYDAAVVPLLVSTVAEIARVHVAGAGPSTLPGSVEWWLAYTPRSLTRALNEAIFQALLDSIADHGWTYELVDLPAGAVATGFEENPDCSVPALSGCILVVQVTCDTRS	not soluble
MAHHHHHHMPLTDEIQLEQLAPTIKGDASWSTGPIYVVCDVGGTNARVGFARAAQHEGSGLHIIYVRFRVTKRDIRQLLEFFDEVLQHLKKNLPYRAGPFLRRVASGAVSVPGPLTNGQLAGPFSNLKGIARLADYPVELFPRGRSALLNDLEAGSYGVLALSNAGMLSDYFKVMWKGTQWDALSEGKPVGSTIGHGRCMVVAPGTGVGSSLIHYVGVSDSYVVLALECGCLSMSWCANEDSKYVQALAGYMASKARVKGLDSTVAPIWEAAANGSGLEFNYAYEKEGPKASAPLKSAPEVAKLAKAGSDPAAVAAMDRLYKNLIGLTAETTMQFLPLTCVLMGDSIVSNSFYFDNPENVKKLQARINEHTMERQLKFLSRTTFLRQVRSVNINLLGCLEFGSQLSNRADQLAPTKSNL	not soluble
